Measurements: the supplement of paper PMC9876800

System: peptide library, one residue held at a place counted from the S/T acceptor
Experiment: relative phosphorylation of the sub-library (ratio to the mean residue at this position); higher = residue favoured
Conditions: human
Outline: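 Spots on streptavidin membranes were phosphorimaged and quantified by densitometry to measure phosphorylation of biotinylated degenerate peptide sub-libraries by purified recombinant kinases, human or orthologue constructs. The reactions ran in 384-well plates for 90 min under kinase-specific conditions, with peptides at 50 μM and 50 μM ATP spiked with γ-32P-ATP. Relative sub-library phosphorylation is the ratio to the mean residue at that position.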

Chain of LRRK2, construct: aa960-end (Q5S007 960-2527, looked up): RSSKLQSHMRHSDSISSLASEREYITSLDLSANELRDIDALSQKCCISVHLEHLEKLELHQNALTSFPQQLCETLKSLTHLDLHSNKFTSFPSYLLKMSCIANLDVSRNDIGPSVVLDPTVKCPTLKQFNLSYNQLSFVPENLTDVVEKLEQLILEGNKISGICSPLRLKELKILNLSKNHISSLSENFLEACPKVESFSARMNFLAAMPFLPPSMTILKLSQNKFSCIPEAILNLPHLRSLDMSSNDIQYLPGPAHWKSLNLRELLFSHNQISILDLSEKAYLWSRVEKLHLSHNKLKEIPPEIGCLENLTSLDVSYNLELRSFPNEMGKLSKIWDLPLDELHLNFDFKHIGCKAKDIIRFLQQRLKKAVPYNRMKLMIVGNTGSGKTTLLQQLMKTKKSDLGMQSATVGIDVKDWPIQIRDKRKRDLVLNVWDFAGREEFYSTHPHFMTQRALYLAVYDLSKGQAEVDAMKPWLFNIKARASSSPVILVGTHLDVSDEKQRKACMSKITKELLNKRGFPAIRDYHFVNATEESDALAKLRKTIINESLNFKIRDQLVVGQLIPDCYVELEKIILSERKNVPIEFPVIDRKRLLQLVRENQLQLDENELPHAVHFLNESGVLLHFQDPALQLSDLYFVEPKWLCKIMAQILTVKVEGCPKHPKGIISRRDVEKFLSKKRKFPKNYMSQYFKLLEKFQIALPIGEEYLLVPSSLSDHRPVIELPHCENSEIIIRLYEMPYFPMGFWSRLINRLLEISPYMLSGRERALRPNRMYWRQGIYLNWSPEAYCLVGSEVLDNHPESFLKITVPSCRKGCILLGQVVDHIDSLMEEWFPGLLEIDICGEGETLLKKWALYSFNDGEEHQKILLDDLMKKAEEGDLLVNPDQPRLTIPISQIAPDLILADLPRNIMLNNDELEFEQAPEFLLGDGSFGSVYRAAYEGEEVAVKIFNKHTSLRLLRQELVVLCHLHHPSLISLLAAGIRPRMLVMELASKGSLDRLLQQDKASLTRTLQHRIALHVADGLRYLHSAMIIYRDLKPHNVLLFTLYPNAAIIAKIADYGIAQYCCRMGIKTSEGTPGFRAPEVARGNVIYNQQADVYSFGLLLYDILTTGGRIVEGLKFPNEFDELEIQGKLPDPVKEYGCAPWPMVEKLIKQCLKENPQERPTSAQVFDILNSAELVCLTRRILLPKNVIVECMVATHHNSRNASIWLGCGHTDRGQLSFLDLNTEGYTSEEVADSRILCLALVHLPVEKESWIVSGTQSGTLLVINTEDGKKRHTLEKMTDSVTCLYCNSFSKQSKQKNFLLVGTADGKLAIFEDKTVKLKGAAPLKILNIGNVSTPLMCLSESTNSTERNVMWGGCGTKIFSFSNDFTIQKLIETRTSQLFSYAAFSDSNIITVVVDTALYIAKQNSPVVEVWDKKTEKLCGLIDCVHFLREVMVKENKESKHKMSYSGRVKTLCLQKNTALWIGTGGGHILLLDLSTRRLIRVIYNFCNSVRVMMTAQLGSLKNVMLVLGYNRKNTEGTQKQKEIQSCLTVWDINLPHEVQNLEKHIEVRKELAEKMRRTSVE
Chain of HIPK3, construct: aa161-562 (Q9H422 161-562, looked up): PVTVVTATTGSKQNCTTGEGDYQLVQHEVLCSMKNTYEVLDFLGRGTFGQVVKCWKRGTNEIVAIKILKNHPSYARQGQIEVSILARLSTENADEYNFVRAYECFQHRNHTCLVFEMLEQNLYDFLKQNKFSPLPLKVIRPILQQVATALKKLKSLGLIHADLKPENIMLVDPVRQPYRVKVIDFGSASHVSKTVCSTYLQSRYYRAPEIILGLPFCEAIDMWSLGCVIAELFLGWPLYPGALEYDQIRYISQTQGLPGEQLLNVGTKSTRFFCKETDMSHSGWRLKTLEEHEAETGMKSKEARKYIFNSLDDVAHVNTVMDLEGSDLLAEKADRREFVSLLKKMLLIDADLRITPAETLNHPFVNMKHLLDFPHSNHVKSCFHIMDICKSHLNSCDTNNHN
Chain of HIPK4, construct: Full length (Q8NE63 whole entry, looked up): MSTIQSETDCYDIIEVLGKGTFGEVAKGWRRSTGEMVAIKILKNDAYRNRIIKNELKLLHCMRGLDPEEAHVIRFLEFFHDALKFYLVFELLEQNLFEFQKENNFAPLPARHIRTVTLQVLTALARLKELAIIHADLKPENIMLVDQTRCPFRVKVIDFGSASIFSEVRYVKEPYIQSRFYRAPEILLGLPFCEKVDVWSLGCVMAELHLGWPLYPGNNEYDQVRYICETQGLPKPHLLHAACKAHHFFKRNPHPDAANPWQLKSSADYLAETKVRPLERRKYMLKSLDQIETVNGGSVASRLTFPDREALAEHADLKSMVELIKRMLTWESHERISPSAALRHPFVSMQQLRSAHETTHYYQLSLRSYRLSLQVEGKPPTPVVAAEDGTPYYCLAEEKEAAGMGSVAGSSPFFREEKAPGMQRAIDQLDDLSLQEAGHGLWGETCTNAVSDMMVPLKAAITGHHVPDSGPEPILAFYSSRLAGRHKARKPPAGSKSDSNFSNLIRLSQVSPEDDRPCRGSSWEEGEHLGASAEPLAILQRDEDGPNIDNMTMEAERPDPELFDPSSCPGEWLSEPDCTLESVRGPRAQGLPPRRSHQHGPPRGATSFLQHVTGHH
Chain of MINK1, construct: aa1-320 (Q8N4C8 1-320, looked up): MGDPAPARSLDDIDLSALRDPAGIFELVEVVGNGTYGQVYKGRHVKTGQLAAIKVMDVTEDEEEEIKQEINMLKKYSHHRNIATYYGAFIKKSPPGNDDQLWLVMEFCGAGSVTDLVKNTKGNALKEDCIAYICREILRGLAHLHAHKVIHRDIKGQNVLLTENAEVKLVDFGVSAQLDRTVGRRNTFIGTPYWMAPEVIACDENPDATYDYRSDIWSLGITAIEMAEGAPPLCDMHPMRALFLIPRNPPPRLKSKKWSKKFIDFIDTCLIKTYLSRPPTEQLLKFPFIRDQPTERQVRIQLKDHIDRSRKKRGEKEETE

LRRK2, construct: aa960-end (from UniProt Q5S007)
relative phosphorylation
Conditions	at +1	at +2	at +3	at +4	at -1	at -2	at -3	at -4	at -5
A fixed	0.869	0.867	0.909	0.908	0.82	1.05	0.893	0.985	1.01
D fixed	0.525	0.559	0.696	0.691	0.639	0.516	0.675	0.685	0.698
E fixed	0.546	0.451	0.595	0.673	0.517	0.477	0.662	0.719	0.741
F fixed	0.874	1.17	0.884	1	0.94	1.95	1.05	1.23	1.09
G fixed	0.82	0.826	0.894	0.966	1.17	1.18	1.06	1.06	0.993
H fixed	0.814	1.02	1.16	1.18	1.15	1.18	1.08	0.949	1.04
I fixed	0.996	0.834	0.649	0.934	0.482	0.684	0.74	0.758	0.906
K fixed	1.91	1.44	1.82	1.39	1.76	0.755	1.43	1.12	1.08
L fixed	1.15	0.786	0.755	0.865	0.812	0.943	0.85	0.842	0.858
M fixed	1.08	0.952	0.776	0.949	0.969	1.35	0.974	0.957	1.05
N fixed	0.977	0.943	1.12	1.12	1.03	0.799	0.881	0.805	0.83
P fixed	0.941	0.724	0.822	0.794	0.88	0.943	1.01	1.1	0.989
Q fixed	1.07	0.709	0.946	1.02	0.765	0.73	0.83	0.821	0.813
R fixed	1.88	2.91	2.3	1.45	1.97	0.994	2.07	1.4	1.37
V fixed	0.777	0.83	0.741	0.79	0.553	0.658	0.723	0.846	0.971
W fixed	0.857	0.908	1.05	1.09	0.879	1.28	0.996	1.65	1.47
Y fixed	0.916	1.07	0.885	1.17	1.65	1.51	1.07	1.08	1.1
pThr fixed	0.67	0.672	0.925	0.822	0.54	0.782	0.822	0.859	0.932
pTyr fixed	0.759	0.688	0.9	0.868	0.709	0.754	0.909	0.892	1.18

MINK1, construct: aa1-320 (from UniProt Q8N4C8)
relative phosphorylation
Conditions	at +1	at +2	at +3	at +4	at -1	at -2	at -3	at -4	at -5
A fixed	0.635	0.904	0.864	0.99	0.952	1.11	1.02	1.08	1.28
D fixed	0.177	0.699	0.464	0.556	0.854	0.746	0.867	1	0.995
E fixed	0.187	0.749	0.405	0.574	0.536	0.498	0.818	0.891	0.801
F fixed	1.16	0.577	0.764	0.533	0.778	1.55	0.946	1.07	0.8
G fixed	0.708	1.09	0.959	1.28	1.69	1.19	1.19	1.19	1.2
H fixed	0.783	1.25	1.25	1.22	1.31	1.13	1.2	1.08	1.09
I fixed	1.91	0.664	0.726	0.983	0.385	0.769	0.784	0.793	0.894
K fixed	0.669	1.93	2.35	1.94	1.25	0.713	1.01	0.947	0.979
L fixed	2.89	0.776	0.869	0.75	0.926	0.789	0.829	0.78	0.73
M fixed	2.32	0.86	0.681	0.897	1.15	0.952	0.95	0.917	0.87
N fixed	0.677	0.937	0.721	1.04	1.49	1.03	1.26	1.03	1.09
P fixed	0.194	1.09	0.892	0.943	0.646	0.675	0.846	0.959	1.06
Q fixed	0.587	0.914	0.818	0.926	1.11	0.882	0.9	0.996	0.958
R fixed	0.65	2.39	2.76	1.74	1.4	0.821	1.15	0.971	1.19
V fixed	1.06	0.763	0.773	0.743	0.536	0.893	0.858	0.966	0.98
W fixed	1.45	0.591	0.928	1.07	0.822	1.38	1.28	1.18	0.978
Y fixed	0.94	0.815	0.778	0.818	1.17	1.87	1.09	1.15	1.1
pThr fixed	0.703	0.621	0.744	0.601	0.629	0.963	1.18	1.07	1.14
pTyr fixed	0.282	0.462	0.623	0.51	0.797	0.745	1.04	0.679	1.06

HIPK3, construct: aa161-562 (from UniProt Q9H422)
relative phosphorylation
Conditions	at +1	at +2	at +3	at +4	at -1	at -2	at -3	at -4	at -5
A fixed	0.905	1.05	1.03	0.883	1.43	2.27	1.26	1.07	0.866
D fixed	0.116	0.665	0.422	0.718	0.435	0.171	0.37	0.534	0.617
E fixed	0.135	0.371	0.338	0.569	0.46	0.158	0.375	0.63	0.608
F fixed	0.541	1.27	0.965	1.07	0.843	0.617	0.713	1.33	1.32
G fixed	0.8	1.07	0.954	1.02	1.07	0.734	1.06	0.962	0.863
H fixed	0.422	1.3	0.962	1.05	0.765	0.465	0.687	0.859	1.03
I fixed	0.656	0.842	1.26	1.17	1.07	1.24	0.682	1.05	0.913
K fixed	0.324	1.33	0.598	1.1	1.12	0.745	0.858	1.01	1.1
L fixed	0.553	1.02	1.05	0.844	0.932	0.757	0.586	0.842	1.15
M fixed	0.706	1.34	1.2	1.05	1.17	0.835	0.752	1.09	0.951
N fixed	0.21	0.801	0.714	0.894	0.585	0.528	0.481	0.545	0.771
P fixed	8.32	0.967	2.43	1.1	1.52	2.41	0.72	1.04	1.17
Q fixed	0.273	0.703	0.762	1.01	0.907	0.626	0.679	0.799	0.984
R fixed	1.5	1.52	1.12	1.36	2.1	3.19	6.13	2.47	1.8
V fixed	0.649	0.847	1.22	0.951	0.929	1.2	0.614	0.918	0.812
W fixed	0.535	1	0.97	1.16	0.76	0.568	0.553	0.896	0.789
Y fixed	0.351	0.895	0.998	1.05	0.913	0.492	0.482	0.956	1.25
pThr fixed	0.236	0.362	0.387	0.458	0.427	0.737	0.512	0.745	0.925
pTyr fixed	0.283	0.331	0.529	0.601	0.585	0.296	0.624	0.7	0.939

HIPK4, construct: Full length (from UniProt Q8NE63)
relative phosphorylation
Conditions	at +1	at +2	at +3	at +4	at -1	at -2	at -3	at -4	at -5
A fixed	0.793	1.38	1.1	1.63	1.15	2.12	0.851	0.995	0.967
D fixed	0.277	0.726	0.71	0.68	0.67	0.463	0.711	0.697	0.886
E fixed	0.34	0.618	0.505	0.578	0.693	0.354	0.477	0.702	0.719
F fixed	0.339	1.46	1.08	1.11	0.616	0.478	0.453	0.816	1.13
G fixed	0.586	1.58	1.49	1.07	1.03	1.07	0.877	1.27	1.26
H fixed	0.671	1.13	0.857	0.716	0.991	0.507	0.649	0.803	1.08
I fixed	0.427	0.675	0.857	1.31	0.589	0.837	0.807	0.82	0.841
K fixed	1	0.686	0.565	0.63	1.72	0.808	0.926	0.864	0.833
L fixed	0.508	0.696	0.816	1.64	0.783	0.916	0.669	1.12	0.968
M fixed	0.403	0.805	0.812	1.53	0.836	0.602	0.661	0.895	0.735
N fixed	1.15	0.806	0.752	0.59	0.984	0.875	0.803	0.639	0.855
P fixed	5	2.12	3.82	1.33	2.03	4.06	1.14	2.12	1.15
Q fixed	0.894	0.753	0.657	0.631	1.23	0.639	0.799	0.759	0.842
R fixed	3.2	0.719	0.525	0.503	1.57	1.35	5.38	2.01	1.47
V fixed	0.684	0.669	0.647	1.28	0.687	1.09	0.615	0.67	0.793
W fixed	0.314	0.988	0.947	1	0.592	0.401	0.562	0.955	1.25
Y fixed	0.415	1.2	0.857	0.785	0.836	0.434	0.626	0.867	1.22
pThr fixed	0.405	0.51	0.71	0.616	0.417	0.585	0.547	0.844	0.67
pTyr fixed	0.36	0.516	0.998	0.728	0.619	0.404	0.561	0.697	0.898
